For one molecule, binding as percent of that observed for VAMP2 results are on record in PMC2605266.

In experiment [1] the target is T1, GST fused to the cytosolic domain of VAMP8 (human).
T1 sequence (Q9BV40 whole entry, looked up): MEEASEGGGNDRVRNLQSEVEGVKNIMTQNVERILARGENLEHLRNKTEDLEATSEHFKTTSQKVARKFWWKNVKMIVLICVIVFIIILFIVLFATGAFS
Briefly: pull-down; 5 ug GST fusion protein immobilised on glutathione Sepharose, 5 ug His-tagged Munc18c in 500 ul, overnight at 4 C; binding buffer 150 mM potassium acetate, 1 mM MgCl2, 0.05% Tween 20, 20 mM HEPES pH 7.4; bound Munc18c detected by immunoblot. Background: A western blot detects proteins with antibodies after separation by electrophoresis.

The target of experiment [2] is T2, GST fused to the cytosolic domain of VAMP4 (human).
T2 sequence (O75379 whole entry, looked up): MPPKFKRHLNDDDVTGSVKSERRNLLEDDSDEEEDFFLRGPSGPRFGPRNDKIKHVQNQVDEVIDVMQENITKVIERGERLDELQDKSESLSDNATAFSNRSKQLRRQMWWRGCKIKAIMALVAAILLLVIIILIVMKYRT
Described as above.

Where only a bound is given, the exact number is not on record here.

B1: Munc18c, N-terminal His6-fusion protein (natural protein)
chain: MAPPVSERGLKSVVWRKIKTAVFDDCRKEGEWKIMLLDEFTTKLLSSCCKMTDLLEEGITVIENIYKNREPVRQMKALYFISPTPKSVDCFLRDFGSKSEKKYKAAYIYFTDFCPDSLFNKIKASCSKSIRRCKEINISFIPQESQVYTLDVPDAFYYCYSPDPSNASRKEVVMEAMAEQIVTVCATLDENPGVRYKSKPLDNASKLAQLVEKKLEDYYKIDEKGLIKGKTQSQLLIIDRGFDPVSTVLHELTFQAMAYDLLPIENDTYKYKTDGKEKEAVLEEDDDLWVRVRHRHIAVVLEEIPKLMKEISSTKKATEGKTSLSALTQLMKKMPHFRKQISKQVVHLNLAEDCMNKFKLNIEKLCKTEQDLALGTDAEGQRVKDSMLVLLPVLLNKNHDNCDKIRAVLLYIFGINGTTEENLDRLIHNVKIEDDSDMIRNWSHLGVPIVPPSQQAKPLRKDRSAEETFQLSRWTPFIKDIMEDAIDNRLDSKEWPYCSRCPAVWNGSGAVSARQKPRTNYLELDRKNGSRLIIFVIGGITYSEMRCAYEVSQAHKSCEVIIGSTHILTPRKLLDDIKMLNKSKDKVSFKDE
With B1, the binding as percent of that observed for VAMP2 in experiment [1] and in experiment [2] was less than 14% in each case.
